Data taken from patent US12247238B2, “Mogroside biocatalysis methods and products” (The Coca-Cola Company, priority 2019, dated 2025).
Residue numbers refer to the chain shown, from its start. Numbers in names are those of the source. Entries after “also recorded” stand apart in the source; their conditions may differ.

Columns and labels:
Assay type in all cases: biochemical
[1] = β-galactosidase ONPG activity assay; conditions: oNPG substrate, over 30 minutes
Procedure, shortened: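 ONPG hydrolysis was run at room temperature in 50 mM sodium citrate pH 5.6 with 10 mM MgCl₂, 100 mM KCl and 2 mM ONPG, followed by o-nitrophenol release at 420 nm. Enzyme came from methanol-induced (72 h) culture supernatant, assayed over 30 min. Vmax was derived, with kinetics from varied substrate where needed.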

[2] = Example 8 standard mogroside biocatalytic assay, Mog V as substrate; conditions: 37° C., pH 5.6
[3] = Standard mogroside biocatalytic assay, mogroside V substrate; conditions: for Initial Rate / Reaction Progress / Sia 1: Mogroside hydrolysis; for Initial Rate / Reaction Progress / Sia 1 / Sia:MogIII / Sia:MogIV: 37 C., pH 5.6; for Reaction Progress / Sia 1 / Sia:MogIII / Sia:MogIV: 72 h; for Sia:MogIII / Sia:MogIV: product ratio
Description: (§1) Standard mogroside biocatalytic assays were performed at 37° C. in 500 μL, volume 50 mM sodium citrate buffer pH 5.6, 10 mM magnesium chloride, 10 mM substrate (typically mogroside V) and 50 μg mL−1 enzyme, and incubated for 24-96 hours. Mogroside glucosidation activity was detected by direct HPLC detection and quantification of mogroside V substrate and mogroside products from filtered reaction supernatant, and quantified by comparison with standard curves based on peak.
(§2) Mogroside compounds HPLC separation and quantification was conducted using a Synergi Hydro-RP column (250 mm×4.6 mm or 150 mm×4.6 mm) with an initial flow rate of 1 mL min−1 and a water: acetonitrile gradient as per below, similar to that described by Zhou et al. (WO 2014/150127). Compounds were detected at 210 nm using diode array detector (Agilent Technologies, USA), and calibration curves established using standard curves from 0.1 to 10 mM.
Cells expressing enzyme variants grown in buffered minimal medium were induced for 72 hr with 1% methanol (refreshed every 24 hr), the culture supernatant harvested and assayed for standard ONPG activity over 30 minutes and mogroside V activity at pH 5.6, 37° C. for 72 hrs. The resultant activity data (Table 2) identified E200 and D258 as the likely catalytic pair for acid/base and nucleophilic attack of mogroside V by the A. oryzae β-glucosidase enzyme.

[4] = Example 8 standard mogroside biocatalytic assay, Mog V as substrate; conditions: 37° C., pH 5.6; for % Siamenoside I: 72 hr
Description: as §1, with “μL” for “μL,”, “V or Siamenoside I)” for “V)”, “peak area (see Analytical Methods).” for “peak.”
as §2, with “Analytical Method: Mogroside” for “Mogroside”, “mM. 150 mm column retention times in minutes: mog V 9.5, sia 1 10.6, mog IVa 10.5, mog IV 11.3, mog III 12.6, mogl I 13.2. 250 mm column retention times: mog V 12.3, sia 1 13.2, mog IVa 13.5, mog IV 14.1, mog III 15.3, mog II 16.2.” for “mM.”

[5] = Example 8 standard mogroside biocatalytic assay, Sia I as substrate; conditions: 37° C., pH 5.6
Description: as §1, with “μL” for “μL,”, “V or Siamenoside I)” for “V)”, “peak area (see Analytical Methods).” for “peak.”
as §2, with “Analytical Method: Mogroside” for “Mogroside”, “mM. 150 mm column retention times in minutes: mog V 9.5, sia 1 10.6, mog IVa 10.5, mog IV 11.3, mog III 12.6, mogl I 13.2. 250 mm column retention times: mog V 12.3, sia 1 13.2, mog IVa 13.5, mog IV 14.1, mog III 15.3, mog II 16.2.” for “mM.”

[6] = Mogroside biocatalytic assay, equimolar MogV:SiaI substrate
Description: as §1, §2

[7] = Mogroside biocatalytic assay, Siamenoside I substrate; conditions: SiaI Substrate (10 mM) (24 h), pH 5.6, 37° C.
Description: as §1, §2

[8] = Mog V Substrate (10 mM) (24 h), pH 5.6, 37° C.
[9] = Equimolar MogV:SiaI Substrate (5 mM each) (48 h), pH 5.6, 37° C.

B1: D258E: A. oryzae β-galactosidase variant, D258E (protein, UniProt Q2UCU3 19-1005, looked up, variant D258E)
Beta-galactosidase A: ASIKHRLNGFTILEHPDPAKRDLLQDIVTWDDKSLFINGERIMLFSGEVHPFRLPVPSLWLDIFHKIRALGFNCVSFYIDWALLEGKPGDYRAEGIFALEPFFDAAKEAGIYLIARPGSYINAEVSGGGFPGWLQRVNGTLRSSDEPFLKATDNYIANAAAAVAKAQITNGGPVILYQPENEYSGGCCGVKYPDADYMQYVMDQARKADIVVPFISNDASPSGHNAPGSGTGAVDIYGHESYPLGFDCANPSVWPEGKLPDNFRTLHLEQSPSTPYSLLEFQAGAFDPWGGPGFEKCYALVNHEFSRVFYRNDLSFGVSTFNLYMTFGGTNWGNLGHPGGYTSYDYGSPITETRNVTREKYSDIKLLANFVKASPSYLTATPRNLTTGVYTDTSDLAVTPLIGDSPGSFFVVRHTDYSSQESTSYKLKLPTSAGNLTIPQLEGTLSLNGRDSKIHVVDYNVSGTNIIYSTAEVFTWKKFDGNKVLVLYGGPKEHHELAIASKSNVTIIEGSDSGIVSTRKGSSVIIGWDVSSTRRIVQVGDLRVFLLDRNSAYNYWVPELPTEGTSPGFSTSKTTASSIIVKAGYLLRGAHLDGADLHLTADFNATTPIEVIGAPTGAKNLFVNGEKASHTVDKNGIWSSEVKYAAPEIKLPGLKDLDWKYLDTLPEIKSSYDDSAWVSADLPKTKNTHRPLDTPTSLYSSDYGFHTGYLIYRGHFVANGKESEFFIRTQGGSAFGSSVWLNETYLGSWTGADYAMDGNSTYKLSQLESGKNYVITVVIDNLGLDENWTVGEETMKNPRGILSYKLSGQDASAITWKLTGNLGGEDYQDKVRGPLNEGGLYAERQGFHQPQPPSESWESGSPLEGLSKPGIGFYTAQFDLDLPKGWDVPLYFNFGNNTQAARAQLYVNGYQYGKFTGNVGPQTSFPVPEGILNYRGTNYVALSLWALESDGAKLGSFELSYTTPVLTGYGNVESPEQPKYEQRKGAY
oNPG [1]: 41.4 ± 0.9 mAu/min/mg
Km [2]: 2.5 ± 0.2 mM
kcat [2]: 966 ± 26 s⁻¹
rate of mogroside hydrolysis (in words) [3]: increased initial rate of mogroside hydrolysis; also recorded: increased rate of mogroside V hydrolysis
Initial Rate [3]: 2.70 µmol/min/mg
Reaction Progress [3]: 99%
Sia 1 [3]: 55%
Sia:MogIII [3]: 2.8
Sia:MogIV [3]: 2.1
Reaction progress (% conversion) [4]: 99%
% Siamenoside I [4]: 55%
Km [5]: 3.31 ± 0.8 mM
kcat [5]: 36.8 ± 3.1 s⁻¹

B2: E142A: A. oryzae β-galactosidase variant, E142A (protein, UniProt Q2UCU3 19-1005, looked up, variant E142A)
Beta-galactosidase A: B1 Beta-galactosidase A with E124A, E240D
oNPG [1]: 33.6 ± 0.4 mAu/min/mg
Km [2]: 2 ± 0.4 mM
kcat [2]: 741 ± 38 s⁻¹
Siamenoside I production/yield from mogroside V (in words) [3]: increased ratio of Siamenoside I production; also recorded: increased Siamenoside I yield
mog III [3, 8]: 1 molar percentage
mog V [3, 8]: 67 molar percentage
sia I [3, 8]: 32 molar percentage
Initial Rate [3]: 2.16 µmol/min/mg
Reaction Progress [3]: 89%
Sia 1 [3]: 73%
Sia:MogIII [3]: 16.2
Sia:MogIV [3]: 13
mog II [6, 9]: 0.1 molar percentage
mog III [6, 9]: 3 molar percentage
mog IV [6, 9]: 0.2 molar percentage
mog V [6, 9]: 10 molar percentage
sia I [6, 9]: 82 molar percentage
effectiveness of Siamenoside I as a substrate in the presence of mogroside V (in words) ([6]; comparison of wildtype and variant): reducing the effectiveness of Siamenoside I as a substrate
Reaction progress (% conversion) [4]: 91%
% Siamenoside I [4]: 78 ± 2.8%
Km [5]: 4.42 ± 0.9 mM
kcat [5]: 3.9 ± 0.7 s⁻¹
mog II [7]: 3 molar percentage
mog III [7]: 12 molar percentage
sia I [7]: 84 molar percentage
